The target of experiment [1] is p66^W410A subunit of HIV-1 reverse transcriptase, expressed in trans (HIV-1 (pSG3)). Put plainly: cell-based or functional assay.
Experiment [2] deals with p66 subunit of HIV-1 reverse transcriptase, expressed in trans with Met-Gly on the N-terminus (HIV-1 (pSG3)). Put plainly: cell-based or functional assay.
Experiment [3] has as its system M7 virions complemented with wildtype trans-RT (Vpr-p51/p66). Description: Inhibition of trans-RT using NRTI and NNRTI, TZM-b1 reporter cell infectivity assay. It is filed as cell-based, HIV-1. The conditions noted are these: for antiviral effect, inhibition of infectivity: TZM-b1 indicator cells, 3TC 0.04, 0.2 and 1.0 μM, nevirapine 1.0, 5.0 and 5.0 μM as printed. How it is done:
Virions derived by cotransfection with M7, vpr-p51/p66 and vpr-IN were used to infect the TZM-b1 reporter cell line. The two RT drugs, 3TC and nevirapine, were analyzed at concentrations of 0.04-1.0 μM for 3TC and 1.0-25.0 μM for nevirapine as described in Example 1. The results are expressed as a percentage of untreated virus.
The trans-heterodimer assay is of clinical relevance for analyzing HIV-1 RT inhibitors, drug resistance and the effects of drug resistance mutations on viral fitness. To examine the response of the trans-heterodimeric RT to anti-RT drugs, transfection-derived M7 virions complemented with wildtype trans-RT (Vpr-p51/p66) were used to infect the TZM-b1 indicator cells in the absence or presence of either 3TC (0.04, 0.2 and 1.0 μM) or nevirapine ([…]).
Virions were derived by cotransfection of 293T cells with M7, vpr-p51/p66 and vpr-IN. The TZM-b1 cells were seeded overnight in 24-well plates at a concentration of 40,000 cells in 250 μl of medium per well. The culture medium was removed and replaced with 250 μl of DMEM containing 1% FBS and 2× drug concentrations (5-fold dilutions). 250 μl of virus suspension normalized for equal IU, as determined by TZM-b1 assay (diluted in DMEM containing 1% FBS and 80 μg/ml DEAE-dextran), was then added to the cells. The two RT drugs used in this analysis, 3TC and nevirapine, were at final concentrations ranging from 0.04-1.0 μM and 1.0-25.0 μM, respectively. The cells were fixed 48 h post-infection, stained with X-gal reagent, and the blue-stained cells were counted using a light microscope as described above. The 50% inhibition concentration (IC50) was measured with a 95% confidence interval.

In experiment [4] the target is T1, p51W401A/p66W401A trans-heterodimeric RT (Human immunodeficiency virus type 1 group M subtype B, UniProt P04585, W988A).
T1 construct: expressed in transfected cells; host or cells: 293T
Put plainly: Effects of NNRTIs on trans-RT subunit interaction: immunoblot of virion-associated p66 from transfected 293T cells. In kind it is cell-based, HIV-1. To be noted: p51 W401A/p66 W401A RT mutants, FIG. 22. In general terms: Immunoblotting shows a protein as a band on a membrane.
Method: The dimerization enhancing NNRTI EFV was added to the culture medium 12 h after DNA transfection at concentrations ranging from 0.01-1.0 μM. The transfection-derived virions were collected 48 hours later and analyzed by immunoblot using mAbs to (A) RNase H and (B) CA.
At 24 h post-transfection, the specified concentrations of drug were added. […] The clarified supernatants were processed for and analyzed by immunoblot as described below.
Transfection-derived virions were concentrated by ultracentrifugation through 20% sucrose cushion (125,000×g, 2 hr, 4° C.) using a SW41 rotor (Beckman Inc.). […] The blocked blots were exposed to an appropriate primary antibody for 1 h in blocking buffer with constant mixing. After extension washing, bound antibodies were detected by chemiluminescence using horseradish peroxidase-conjugated species-specific secondary antibodies (Southern Biotechnology Associates, Inc.).

The target in experiment [5] is p66^W410L subunit of HIV-1 reverse transcriptase, expressed in trans (HIV-1 (pSG3)). Put plainly: cell-based or functional assay.
The target of experiment [6] is p66^L234A subunit of HIV-1 reverse transcriptase, expressed in trans (HIV-1 (pSG3)). Description: cell-based or functional assay.
The target of experiment [7] is p66^W401A subunit of HIV-1 reverse transcriptase, expressed in trans (HIV-1 (pSG3)). Put plainly: cell-based or functional assay.
The subject of experiment [8] is HIV-1 NL4-3 with L234A, W398A, W401A and YMAA mutations. Description: Infectivity of HIV-1 NL4-3 proviral clones with RT mutations, with efavirenz (FIG. 23). The conditions noted are these: NL4-3 proviral clones with RT mutation, transfected into 293T cells.
Method: Additional analysis of the W401A and W410A mutations was conducted in the context of the complete HIV-1 NL4-3 proviral clone. […] The non-infectious RT-minus M7 clone was included as negative control (lane 2). […] Probing a replica blot with mAb to CA confirmed that approximately the same amount of each virus was analyzed (FIG. 13C).

Some results are limits rather than exact numbers.

In experiment [1], Vpr-p51^N363A fusion protein registered a virus infectivity, TZM-b1 reporter cells, percentage of wildtype trans heterodimer of 35%.

Vpr-p51^W402A fusion protein returned a virus infectivity, TZM-b1 reporter cells, percentage of wildtype trans-RT heterodimer in experiment [2] of less than 50%.

Turning to `Cc1ccnc2c1NC(=O)c1cccnc1N2C1CC1` [nevirapine], in experiment [3] (Human immunodeficiency virus 1, TZM-b1, 48 h, read-out: IC50, inhibition of infectivity), the IC50 – broadly, the concentration that gives 50% inhibition – turned out to be 0.011 µM. The “antiviral effect, inhibition of infectivity” value in experiment [3] is “potent, dosage-dependent antiviral effect”.

In the case of “2′,5′-bis-O-(tert-butyldimethylsilyl)-beta-D-ribofuranosyl 3′-spiro-5″-(4″-amino-1″,2″-oxathiole 2″,2″-dioxide) [TSAO]”, the “RT heterodimerization, destabilization” value in experiment [4] is “can destabilize HIV-1 RT heterodimerization”.

In experiment [2], Vpr-p51^N363A;Y405A fusion protein showed a virus infectivity, TZM-b1 reporter cells, percentage of wildtype trans heterodimer of 35%.

The molecule Vpr-p51^W406A fusion protein showed a virus infectivity, TZM-b1 reporter cells, percentage of wildtype trans-RT heterodimer in experiment [2] of less than 50%.

Vpr-p51^W398A fusion protein returned a virus infectivity, TZM-b1 reporter cells, percentage of wildtype trans-RT heterodimer in experiment [2] of less than 50%.

In the case of Vpr-p51^W401A fusion protein, the virus infectivity, TZM-b1 reporter cells, percentage of wildtype trans heterodimer in experiment [5] and in experiment [1] was 40% each time.

Take “Vpr-p51 fusion protein, wildtype, modified construct with 135 bps of PR sequence (45 amino acids) between Vpr and RT”: the virus infectivity, TZM-b1 reporter cells, percentage of wildtype trans heterodimer in experiment [6] was less than 5%. In experiment [7], the virus infectivity, JLTRG-R5 reporter T cell line (EGFP), percentage of wildtype trans-RT was determined as 50%; the virus infectivity, TZM-b1 reporter cells, percentage of wildtype trans heterodimer came out at 40%; the virus infectivity, TZM-b1 reporter cells, percentage of wildtype trans-RT came to 40%.

In experiment [1], Vpr-p51^W401L fusion protein displayed a virus infectivity, TZM-b1 reporter cells, percentage of wildtype trans heterodimer of 40%.

With Vpr-p51^W414A fusion protein, in experiment [2], the virus infectivity, TZM-b1 reporter cells, percentage of wildtype trans-RT heterodimer was less than 50%.

For the molecule Vpr-p51^Y405A fusion protein, in experiment [1], the virus infectivity, TZM-b1 reporter cells, percentage of wildtype trans heterodimer turned out to be 25%. For the same molecule, the virus infectivity, TZM-b1 reporter cells, percentage of wildtype trans-RT heterodimer in experiment [2] stood at 50%.

As for `O=C1Nc2ccc(Cl)cc2[C@@](C#CC2CC2)(C(F)(F)F)O1` [efavirenz], the “rescue of infectivity of mutant virus” value in experiment [8] is listed as “not rescued”.

Take `Nc1ccn([C@@H]2CS[C@H](CO)O2)c(=O)n1` [3TC]: the “antiviral effect, inhibition of infectivity” value in experiment [3] was “potent, dosage-dependent antiviral effect”.
